Like-named read-outs stand apart in the source and are kept apart here.
## Env (BG505.T332N): N197S and N197T
N-glycosylation at N195
  other: decreases

## Env (LAI): D113N
N-glycosylation at N113
  other: no change

## Env (LAI): N197S/T
N-glycosylation at N197
  other: no change
